Where no end group is shown, it is not given here.
Columns and labels:
PSMA Fab (006 PSMA Fab) [1] = biological target: T1, PSMA Fab (006 PSMA Fab); test: clonal phage ELISA; biotinylated PSMA Fab on neutravidin plate, blocking buffer alone; anti-M13 HRP detection;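 note: crude clonal phage supernatants added without washing to wells pretreated with blocking buffer with or without PSMA antigen, short incubation, then washed before detecting bound phage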
T1 construct: also called Anti-PSMA Fab; anti-PSMA Fab
Method: (§1) Clonal phage were harvested as crude supernatants and screened via standard ELISAs. […] Prior to the addition of clonal phage. wells were incubated with blocking buffer and PSMA antigen or blocking buffer alone. Without washing or aspirating, clonal phage supernatants were then added to the wells and incubated for a short time. Wells were then washed followed by detection of bound phage using a horse radish conjugated anti-M13 antibody.

PSMA Fab (006 PSMA Fab) [2] = biological target: T1, PSMA Fab (006 PSMA Fab); test: clonal phage ELISA; biotinylated PSMA Fab on neutravidin plate pre-incubated with PSMA antigen as competitor; anti-M13 HRP detection;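 note: crude clonal phage supernatants briefly incubated on wells preloaded with PSMA antigen in blocking buffer, or buffer only as control, bound phage detected with HRP-conjugated anti-M13 antibody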
Method: as §1

PSMA Fab [3] = biological target: T2, PSMA Fab; test: clonal phage ELISA on biotinylated PSMA Fab captured on neutravidin plates, anti-M13 HRP detection, blocking buffer alone
T2 construct: also called Anti-PSMA Fab; 006 PSMA Fab
Method: as §1

PSMA Fab [4] = biological target: T2, PSMA Fab; test: clonal phage ELISA on captured PSMA Fab pre-incubated with PSMA antigen as competitor, anti-M13 HRP detection;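 note: crude clonal phage supernatants tested by ELISA, wells first treated with blocking buffer plus PSMA antigen, bound phage read out via HRP-linked anti-M13 antibody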
Method: as §1

PSMA Fab [5] = biological target: T3, PSMA Fab; test: clonal phage ELISA on biotinylated PSMA Fab captured on neutravidin, anti-M13 HRP detection;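 note: crude clonal phage supernatants added to wells pretreated with PSMA antigen in blocking buffer or with blocking buffer only, then briefly incubated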
T3 construct: also called Anti-PSMA Fab; 006 PSMA Fab
Method: as §1

PSMA Fab [6] = biological target: T3, PSMA Fab; test: clonal phage ELISA on captured PSMA Fab pre-incubated with PSMA antigen as competitor;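 note: crude clonal phage supernatants added to wells without washing away the PSMA competitor, bound phage detected by HRP-conjugated anti-M13 antibody, reference wells received blocking buffer only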
Method: as §1

Binder	Phage binding ELISA signal, Anti-PSMA Fab (PSMA Fab [3])	phage binding ELISA signal (Anti-PSMA Fab, PSMA antigen present) (PSMA Fab [4])	Phage binding ELISA signal, Anti-PSMA Fab (PSMA Fab [5])	Phage binding ELISA signal, Anti-PSMA Fab in presence of PSMA (PSMA Fab [6])	also measured
IDTICRPSWMCLGF (cysteine pairing not given here; also: fused to phage pIII, orientation and linker not given here) [Phage-3140]					Phage binding ELISA signal, Anti-PSMA Fab (PSMA Fab (006 PSMA Fab) [1]): 2.05; Phage binding ELISA signal, Anti-PSMA Fab in presence of PSMA (PSMA Fab (006 PSMA Fab) [2]): 0.0788
YERVCEPLWMCTGF (cysteine pairing not given here; also: fused to phage pIII, orientation and linker not given here) [Phage-3141]					Phage binding ELISA signal, Anti-PSMA Fab (PSMA Fab (006 PSMA Fab) [1]): 2.05; Phage binding ELISA signal, Anti-PSMA Fab in presence of PSMA (PSMA Fab (006 PSMA Fab) [2]): 0.0802
AGVYCTPMWMCTGF (cysteine pairing not given here; also: fused to phage pIII, orientation and linker not given here) [Phage-3142]					Phage binding ELISA signal, Anti-PSMA Fab (PSMA Fab (006 PSMA Fab) [1]): 2.05; Phage binding ELISA signal, Anti-PSMA Fab in presence of PSMA (PSMA Fab (006 PSMA Fab) [2]): 0.0775
SVPLCIPEWMCVGF (cysteine pairing not given here; also: fused to phage pIII, orientation and linker not given here, Clonal phage of the Peptide-180 library, tested as crude supernatant; not shown: fused to pIII of the bacteriophage) [Phage-3143]	2.05	0.106			
HLPRCEPAWMCHGF (cysteine pairing not given here; also: fused to phage pIII, orientation and linker not given here, Clonal phage of the Peptide-180 library, tested as crude supernatant; not shown: fused to pIII of the bacteriophage) [Phage-3144]	2.05	0.0904			
IERSCTPSWMCHGF (cysteine pairing not given here; also: fused to phage pIII, orientation and linker not given here, Clonal phage of the Peptide-180 library, tested as crude supernatant; not shown: fused to pIII of the bacteriophage) [Phage-3145]	2.05	0.072			
GPIMCQPRWMCEGF (cysteine pairing not given here; also: fused to phage pIII, orientation and linker not given here, Clonal phage of the Peptide-180 library, tested as crude supernatant; not shown: fused to pIII of the bacteriophage) [Phage-3146]	2.05	0.0807			
FEMFCIPAWMCSGL (cysteine pairing not given here; also: fused to phage pIII, orientation and linker not given here, Clonal phage of the Peptide-180 library, tested as crude supernatant; not shown: fused to pIII of the bacteriophage) [Phage-3147]	2.05	0.0821			
AEYMCIPSWMCHGM (cysteine pairing not given here; also: fused to phage pIII, orientation and linker not given here, Clonal phage of the Peptide-180 library, tested as crude supernatant; not shown: fused to pIII of the bacteriophage) [Phage-3148]	2.05	0.0861			
LLPACKPTWMCTGL (cysteine pairing not given here; also: fused to phage pIII, orientation and linker not given here, Clonal phage of the Peptide-180 library, tested as crude supernatant; not shown: fused to pIII of the bacteriophage) [Phage-3149]	2.04	0.135			
DAPLCKPQWMCSGF (cysteine pairing not given here; also: fused to phage pIII, orientation and linker not given here, Clonal phage of the Peptide-180 library, tested as crude supernatant; not shown: fused to pIII of the bacteriophage) [Phage-3150]	2.04	0.0854			
FPRLCEPLWMCKGF (cysteine pairing not given here; also: fused to phage pIII, orientation and linker not given here, Clonal phage of the Peptide-180 library, tested as crude supernatant; not shown: fused to pIII of the bacteriophage) [Phage-3151]	2.04	0.0987			
WDQWCVPKWMCQGF (cysteine pairing not given here; also: fused to phage pIII, orientation and linker not given here, Clonal phage of the Peptide-180 library, tested as crude supernatant; not shown: fused to pIII of the bacteriophage) [Phage-3152]	2.04	0.197			
DMSLCKPPWMCFGF (cysteine pairing not given here; also: fused to phage pIII, orientation and linker not given here, Clonal phage of the Peptide-180 library, tested as crude supernatant; not shown: fused to pIII of the bacteriophage) [Phage-3153]	2.04	0.0792			
PWIVCKPAWMCTGF (cysteine pairing not given here; also: fused to phage pIII, orientation and linker not given here, Clonal phage of the Peptide-180 library, tested as crude supernatant; not shown: fused to pIII of the bacteriophage) [Phage-3154]	2.04	0.118			
VSSMCKPAWMCSGF (cysteine pairing not given here; also: fused to phage pIII, orientation and linker not given here, Clonal phage of the Peptide-180 library, tested as crude supernatant; not shown: fused to pIII of the bacteriophage) [Phage-3155]	2.04	0.0629			
IQVMCRPAWMCSGF (cysteine pairing not given here; also: fused to phage pIII, orientation and linker not given here, Clonal phage of the Peptide-180 library, tested as crude supernatant; not shown: fused to pIII of the bacteriophage) [Phage-3156]	2.04	0.0959			
QMPMCRPAWMCMGF (cysteine pairing not given here; also: fused to phage pIII, orientation and linker not given here) [Phage-3157]			2.04	0.105	
IVPYCMPQWMCSGF (cysteine pairing not given here; also: fused to phage pIII, orientation and linker not given here) [Phage-3158]			2.04	0.107	
WMAMCKPVWMCEGF (cysteine pairing not given here; also: fused to phage pIII, orientation and linker not given here) [Phage-3159]			2.04	0.163	
LALRCEPSWMCLGF (cysteine pairing not given here; also: fused to phage pIII, orientation and linker not given here) [Phage-3160]			2.03	0.112	
NHVQCVPNWMCSGF (cysteine pairing not given here; also: fused to phage pIII, fusion site not given here) [Phage-3161]			2.03	0.138	
ETALCRPLWMCDWL (cysteine pairing not given here; also: fused to phage pIII, fusion site not given here) [Phage-3162]			2.03	0.0692	
DIHLCTPNWMCSGF (cysteine pairing not given here; also: fused to phage pIII, fusion site not given here) [Phage-3163]			2.03	0.0738	
MDKICSPMWMCLGF (cysteine pairing not given here; also: fused to phage pIII, fusion site not given here) [Phage-3164]			2.03	0.0702	
NVHYCVPAWMCNGF (cysteine pairing not given here; also: fused to phage pIII, fusion site not given here) [Phage-3165]			2.03	0.163	
LVRVCTPMWMCQGF (cysteine pairing not given here; also: fused to phage pIII, fusion site not given here) [Phage-3166]			2.03	0.058	

Reference: patent publication US20260242478A1 (published 2026)
